The target in the experiment is T1, hPD-L1-His (human, UniProt Q9NZQ7 19-238).
T1 construct: Bought protein; also called hPD-L1-His (manufactured by Edison); not shown: His tag
Description: SPR (Biacore T200), antibody on Protein A chip, hPD-L1-His injected, 1:1 fit. How it is done:
Subsequently, the binding affinity of the anti-PD-L1 chimeric antibody, humanized antibody, and marketed control antibody to hPD-L1-His (manufactured by Edison) were determined by surface plasmon resonance (Biacore T200 biosensor, Biacore, INC, Piscataway N.J.) equipped with pre-immobilized Protein A sensor chips.
The detection results were read after the chip was regenerated with pH 2.0 glycine (30 μl/min, 10-20 s). Kinetic association rates (kon) and dissociation rates (koff) were obtained simultaneously by fitting the data globally to a 1:1 Langmuir binding model (Karlsson, R. Roos, H. Fagerstam, L. Petersson, B., 1994. Methods Enzymology 6. 99-110) using Biacore T200 Evaluation Software 3.0. Affinities were deduced from the quotient of the kinetic rate constants (KD=koff/kon).
(Surface plasmon resonance follows binding to a sensor surface in real time, without labels.)

The text below walks through data of patent publication US20220073621A1 (EUCURE BEIJING BIOPHARMA, published 2022).

Positions count from the first letter of the chain named.

T1 sequence (Q9NZQ7 19-238 limits assumed): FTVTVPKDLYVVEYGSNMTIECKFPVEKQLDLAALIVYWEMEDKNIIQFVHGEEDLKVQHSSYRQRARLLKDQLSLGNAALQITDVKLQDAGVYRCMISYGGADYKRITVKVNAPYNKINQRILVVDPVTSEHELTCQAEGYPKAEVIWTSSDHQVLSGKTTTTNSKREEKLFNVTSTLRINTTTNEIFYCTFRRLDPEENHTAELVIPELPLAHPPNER

B1: 7E4-H2K2-IgG1 (antibody, V domains shown)
VH: QVQLVQSGAEVKKPGASVKVSCKASGFKFTDYAIHWVRQAPGKSLEWMGVISIYYGEASYNQKFKDRVTLTVDTSASTAYMELSSLRSEDTAVYYCAREDYYGSSSYFDYWGQGTLVTVSS
VL: DNVLTQSPSFLSASVGDRVTMTCSASSSVSSSYLHWYQQKPGASPKPLIHRTSNLASGVPSRFSGSGSGTEFTLTISSLQPEDFATYYCQQWSGYPYTFGGGTKLEIK
B1: binding was characterised by a dissociation constant (Kd) of 21.9 nM, the koff (usually a measure of how fast the partners let go of each other) came to 0.0027 s⁻¹ and the kon (commonly a measure of how fast the partners come together) amounted to 123000 M⁻¹ s⁻¹.

B2: 7E4-H2K1-IgG1 (antibody, V domains shown)
VH: B1 VH
VL: B1 VL with V3Q, M21I, S44A
B2: the Kd (in general, the free concentration of one partner at which half of the binding sites on the other are occupied at equilibrium, for simple one-to-one binding) is 27 nM; the koff was 0.00344 s⁻¹; the kon worked out at 128000 M⁻¹ s⁻¹.

B3: 7E4-H2K3-IgG1 (antibody, V domains shown)
VH: B1 VH
VL: B1 VL with D1E, P41S, F72Y, L79V
B3 yielded a Kd of 12.7 nM, a koff of 0.00163 s⁻¹ and a kon of 128000 M⁻¹ s⁻¹.

B4: 7E4-H1K3-IgG1 (antibody, V domains shown)
VH: B1 VH with K43Q
VL: B1 VL with D1E, P41S, F72Y, L79V
For the molecule B4, the Kd is 13.3 nM, the koff was 0.0017 s⁻¹ and the kon was found to be 128000 M⁻¹ s⁻¹.

B5: 7E4-H1K2-IgG1 (antibody, V domains shown)
VH: B1 VH with K43Q
VL: B1 VL
Consider B5, for which the Kd was 19.8 nM, the koff came out at 0.0025 s⁻¹ and the kon is 126000 M⁻¹ s⁻¹.

B6: 7E4-H1K1-IgG1 (antibody, V domains shown)
VH: B1 VH with K43Q
VL: B1 VL with V3Q, M21I, S44A
With B6, the Kd amounted to 26.5 nM, the koff came to 0.00313 s⁻¹ and the kon amounted to 118000 M⁻¹ s⁻¹.

B7: 6A11-H1K4-IgG1 (antibody, V domains shown)
VH: EVQLVESGGGLVQPGGSLRLSCAASGFTFSSFGMHWVRQAPGKGLEWVSYISSGSNTIYYADTVKGRFTISRDNAKNSLYLQMNSLRAEDTAVYYCARNGYDGWYAMDYWGQGTTVTVSS
VL: EIVLTQSPATLSASPGERATLSCSASSSVSYIHWFQQKPGQSPRRWIYDTSKLASGIPARFSGSGSGTSYTLTISSMEPEDAATYYCQQWSTNPFTFGQGTKLEIKR
B7 registered a Kd of 8.29 nM, an off-rate (koff) of 0.00124 s⁻¹ and a kon of 149000 M⁻¹ s⁻¹.

B8: 6A11-H3K3-IgG1 (antibody, V domains shown)
VH: B7 VH with L18R, S49A, A97T
VL: B7 VL with S69D, A82F
As for B8, the dissociation constant (Kd) is 4.91 nM, the koff was 0.0013 s⁻¹ and the kon was determined as 265000 M⁻¹ s⁻¹.

B9: 6A11-H4K3-IgG1 (antibody, V domains shown)
VH: B7 VH with L18R, S49A, A75P, V93I, A97T
VL: B7 VL with S69D, A82F
With B9, the equilibrium dissociation constant (Kd) worked out at 7.09 nM, the koff was 0.00165 s⁻¹ and the on-rate constant (kon) was 233000 M⁻¹ s⁻¹.

B10: 6A11-H4K4-IgG1 (antibody, V domains shown)
VH: B7 VH with L18R, S49A, A75P, V93I, A97T
VL: B7 VL
Take B10: the Kd stood at 9.59 nM, the koff amounted to 0.002 s⁻¹ and the kon is 208000 M⁻¹ s⁻¹.

B11: 6A11-H3K4-IgG1 (antibody, V domains shown)
VH: B7 VH with L18R, S49A, A97T
VL: B7 VL
In turn, B11 returned a Kd of 6.52 nM, a koff of 0.00168 s⁻¹ and a kon of 258000 M⁻¹ s⁻¹.

B12: 6A11-H2K4-IgG1 (antibody, V domains shown)
VH: B7 VH with A97T
VL: B7 VL
Consider B12, for which the Kd is 7.01 nM, the off-rate constant (koff) was 0.00153 s⁻¹ and the kon amounted to 218000 M⁻¹ s⁻¹.
